Measurements: patent US20120213761A1 (MEDIZINISCHE UNIVERSITAET WIEN, published 2012)

Molecular target: T1, tumor necrosis factor receptor-associated factor 2 (TRAF2), endogenous, in human cardiac tissue (human, UniProt Q12933 2-501)
T1 construct: Immunoprecipitated from human cardiac tissue or tissue culture lysates with a TRAF2 antibody (BD Pharmingen)
T1 sequence (looked up): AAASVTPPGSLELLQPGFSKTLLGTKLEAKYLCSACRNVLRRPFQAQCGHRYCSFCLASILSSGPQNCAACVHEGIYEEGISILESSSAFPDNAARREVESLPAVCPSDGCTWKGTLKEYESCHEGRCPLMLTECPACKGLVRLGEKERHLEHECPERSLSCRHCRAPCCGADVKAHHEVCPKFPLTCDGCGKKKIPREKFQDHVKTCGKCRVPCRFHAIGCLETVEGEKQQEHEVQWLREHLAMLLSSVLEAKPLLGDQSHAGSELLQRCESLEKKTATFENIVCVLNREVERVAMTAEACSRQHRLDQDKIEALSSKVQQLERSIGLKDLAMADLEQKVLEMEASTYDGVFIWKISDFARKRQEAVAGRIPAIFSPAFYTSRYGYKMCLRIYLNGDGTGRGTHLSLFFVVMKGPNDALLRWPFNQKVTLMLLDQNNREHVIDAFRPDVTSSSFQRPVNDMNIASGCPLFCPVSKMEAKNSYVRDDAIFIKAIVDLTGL
Test: co-IP of LV myocardial lysates, Western blot (FIG. 2A)
Experimental: Human cardiac tissue was lysed in the lysis buffer containing 20 mM Tris (pH 7.5), 135 mM NaCl, 2 mM ethylenediaminetetraacetic acid (EDTA), 2 mM dithiothreitol (DTT), 25 mM β-glycerophosphate, 2 mM sodium pyrophosphate, 10% glycerol, 1% Triton X-100, 1 mM sodium orthovanadate, 10 mM NaF and 1 mM phenylmethylsulfonyl fluoride (PMSF) supplemented with complete protease inhibitor cocktail (Roche Applied Science, Indianapolis, Ind., USA) at 4 C as described (Aharinejad et al., 2005). Lysates were centrifuged (15 000 g) at 4 C for 15 min. For identify GSTP1-TRAF2 complexes formation proteins (500 μg) were immunoprecipitated with TRAF2 antibody (0.5 μg, BD Pharmingen, San Diego, Calif.). […]
Protein lysates (50 μg/lane) were separated by SDS-PAGE (10%) prior to electrophoretic transfer onto a Nitrocellulose membrane (Bio-Rad, Hercules, Calif.) as described (Aharinejad et al., 2005). […] Protein loading was assessed by Ponceau S staining and immunodetection was performed by chemiluminescence (Supersignal-West-Pico, Pierce, Rockford, Bands were quantified by ImageQuant software and specific protein signals were normalized to loading controls and expressed as arbitrary units. The average value of three measurements in each sample was used for data analysis.

B1: Glutathione S-transferase P1 (GSTP1), endogenous, in human left ventricular myocardial lysates (enzyme)
chain: PPYTVVYFPVRGRCAALRMLLADQGQSWKEEVVTVETWQEGSLKASCLYGQLPKFQDGDLTLYQSNTILRHLGRTLGLYGKDQQEAALVDMVNDGVEDLRCKYISLIYTNYEAGKDDYVKALPGQLKPFETLLSQNQGGKTFIVGDQISFADYNLLDLLLIHEVLAPGCLDAFPLLSAYVGRLSARPKLKAFLASPEYVNLPINGNGKQ
notes: also called GST-pi; GSTP1-1
binding result: binds
